Source: PMC6197793, “Optimized Enzymatic Synthesis of Feruloyl Derivatives Catalyzed by Three Novel Feruloyl Esterases from Talaromyces wortmannii in Detergentless Microemulsions” (Computational and Structural Biotechnology Journal, 2018)

Experiments:
Assay in all cases: transesterification rate, HPLC, Michaelis-Menten fit
Type in all cases: biochemical, Talaromyces wortmannii
[1] = substrate: C=COC(=O)/C=C/c1ccc(O)c(OC)c1; conditions: acyl donor, co-substrate 200 mM prenol, system I microemulsion (5.0% buffer), MOPS-NaOH pH 6.0, 40 °C, 8 h
Description: transesterification rate, HPLC, Michaelis-Menten fit on Fae68

[2] = substrate: C=COC(=O)/C=C/c1ccc(O)c(OC)c1; conditions: acyl donor, co-substrate 200 mM prenol, detergentless microemulsion n-hexane: t-butanol: 100 mM MOPS-NaOH pH 6.0 (system II, 3.2% buffer), 40 °C, 8 h
Description: transesterification rate, HPLC, Michaelis-Menten fit on Fae125

[3] = substrate: C=COC(=O)/C=C/c1ccc(O)c(OC)c1; conditions: acyl donor, co-substrate 200 mM prenol, system II microemulsion, MOPS-NaOH pH 6.0, 40 °C, 8 h
Description: transesterification rate, HPLC, Michaelis-Menten fit on Fae7262

B1: Fae68 (Talaromyces wortmannii) (protein)
chain: LPETHLQARGQSTSASSQSFQAKCEAFSSKINGQKKNAFQNDITLHSVTYIPSGGNISMATIPSVCANNAISTASPVEFCRVSLNVTTSSTSQIYMEAWLPGNYTGRFLSTGNGGLGGCIQYSDMLYATQFGFATVGTNNGHFGDTGKYFLGNTEILEDFAYRALHTGVVIGKELAKLFYTQISSGYNKSYYLGCSTGGRQGWKSLEKFPDDFDGVVAGSPAFNFINLSNWGARFLGITGDNTSDTFVTATQWGNLIHDEIIRQCDALDGAVDGIIEDPDLCHPVFETLICNSSSTASSSCLTGVQANTVNQVFTPLIGEDGKWLYPRMQPGSEVLAAYIYYSGQPFQYSTDWFRYVVYNNSAWDPTTWTLADAAAADRQDPFDISTWDSSLVSGFQKKGGKVLHYHGMEDPIITSDSSKAWYKYLADSTNTSPSELDEFYRFFAISGMGHCSPGSGASYIGQGVGTYVPGSEQHPEDNVLMAMVQWVEEGIAPEFVRGAKVASNGSVEYTRKHCKFPKRNVYVGPGNYTDENAWECV
notes: expressed in low-background C1 (Myceliophthora thermophila) strain; EC 3.1.1.73
With B1 the Km [1] was 16.3 ± 3.7 mM.

B2: Fae125 (Talaromyces wortmannii) (protein)
chain: QQSLWGQCGGTGWTGPTQCVSGACCQVQNPYYSQCIQGNCSPASSTSSTKTTATSVSTTTSARPSGTSLSSGCGKTLSLHSGTYTTTVSGQQRQYTLTLPQNYSPNKAYQLIFGYHWLSGTMQDVVSGSYYGIQPLAGDNAIFVAPQGLNNGWGNTNGDDITFTDQMLSTLENALCIDQTQIYSMGWSYGGAMSYALACARPNVFRAVAVMSGANLSGCSPGTQPVAYYAQHGVSDSVLPFSLGEGIRDTFVKDNHCTPTNPPAPAAGSGTHIKTEYSGCDSGHPVWWVAFDGPHEPLATDAGTSSSWTPGQIWSFFSLFH
notes: expressed in low-background C1 (Myceliophthora thermophila) strain; CBM1 predicted at residues 4-30; EC 3.1.1.73
Work on B2 yielded a Km [2] of 21.2 ± 7.4 mM.

B3: Fae7262 (Talaromyces wortmannii) (protein)
chain: ASLTQVNNFGDNPGSLQMYIYVPNTLASKPAVIVAMHPCGGSATEYYGMYDYHSPADQYGYILIYPSATRDYNCFDAYSSSSLTHNGGSDSLSIVNMVKYVISTYGADSSKVYMTGSSSGAIMTNVLAGAYPDVFAAGSAFSGMPYACLYGAGAADPIMSNQTCSQGQIQHTGQQWAAYVHNGYPGYTGRYPRLQMWHGTADNVISYADLGQEISQWTTVMGLSFTGNQTNTPLSGYTKMVYGDGSQFQAYSAAGVGHFVPTDVSVVLDWFGITSGTTTTTTSKTTSATTSTTSSAPSSTGGCTAAHWAQCGGIGYTGCTACVSPYTCQKSNDYYSQCL
notes: as for B1
B3 showed a Km [3] of 26.2 ± 2.9 mM.
